Source: the DeepSol protein solubility set

Experiment: soluble on expression in E. coli; label from the status in PepcDB or PDB records

With “MGSDKIHHHHHHMSALYQALPAVDKLLKTPQGEQLVAEFGHSATVNMCRDLLQQAREHIKRHENLPHFLQNTDATFQHLKEQLLLQQQVNIKTVHNLTGTVLHTNLGRALWSPAAQQAALDAMQGNVALEYDLSAGERSHRDNYISALMQQLTGAEAACVVNNNAAAVLLMLATFAQGKEVIISRGELIEIGGAFRIPDIMAQAGCKLVEVGTTNRTHLKDYRNAINENTAFLMKVHSSNYQICGFTHSVDEQELADLGKEFGIPVITDLGSGALMDLKQFGLPEEPTVQEKLQHGVDLISFSGDKLLGGPQAGIIVGKKALIQQLQAHPLKRVLRCDKVTLAGLEATFRLYLQPEKITEKLTALLLLTQPMERLQAQAEQLKVRLENRLNTNYVIAIEPSEAQIGSGSQPLARIPSVAVTIAPASEKTPAKTTALFARLLALPQPVIGRIERDKIWLDLHSLASLDRLLNSLETL” as the sequence, how does the “soluble on expression in E. coli” value read?
Its value is “not soluble”.

With “MGSDKIHHHHHHMSANRLPVTVVTGFLGSGKTTLLRHLLREGNQRLAVVVNEFGTVGLDGDLLKNCGLCPDDEVDERIVELNNGCLCCTVQEDFLPAMEALLLRSNQLDGIIIETSGLALPKPLLQALNWPAIRNKVFINGVVTLVDGYALSNGSPVSDLKSINEQMTNDNSIDHITPIDELFRDQLISADLVLVSRSDLLSAKDFLFVEEEVKKRGNSNANVLPISNGIIEPSVILGLCKEQNNIYRLDQNNQNQNQNQNHDHDHDHDHDHDHVDVISDHLRMETPIDQDVLREMFLRLVPEYQILRVKGKCWIEGKALPLQIQMVGPRFNSWFEAANENAWQPRQSGIDIVFLSLREGVKEAVVNSLCISTRIK” as the sequence, how does the “soluble on expression in E. coli” value read?
The value was “not soluble”.

Which “soluble on expression in E. coli” value does the source give for “MGSDKIHHHHHHMSAPLLSVRDLSVAFHQGESQSLAVDHVSFDIAPGEILALVGESGSGKSVSAASILKLLPYPAASHPSGQILFDGRDLLTLSEPALRAVRGNDITMIFQEPMTSLNPLHSIEQQIGEILELHQSLTGDAARKRTLELLLQVGIREPEKRLSAFPHELSGGQRQRVMIAMALANRPKLLVADEPTTALDVTVQAQILELLAGLKREHGMSMLFITHDLGIVRKFADRVCVMTGGKIVESGPVEAIFANPQHAYTRKLLASEPRGVPPETDLAKPVVMEGQEIRVWFPIKAGFLRRVVDNVKAVDGVDLTLRAGQTLGVVGESGSGKTTLGLALARLISSRGRIGFLGKNIDGYSFKQMRPLRDRLQVVFQDPFGALSPRMSVGDIIAEGLRVHERGLTAAERDRRVCWALEEVGLDIATRWRYPHEFSGGQRQRIAIARAMVLKPRFVMLDEPTSALDMTVQAQVVDLLRDLQSRHDLAYLFISHDLKVVKALANDIIVMRSGKVVEQGPAQEVFTAPKQDYTKALLAAAFDLKAMNIGGVSQ” here?
Its value is “not soluble”.

Which “soluble on expression in E. coli” value does the source give for “MGSDKIHHHHHHMSARNETGYERVLVPVGDKSDPNMLTELSSILVDPRRGAVRFTHVTTDRSFVGSQENWRTGSDSVAESQHTLREEGIESTGTIRTASSALDGILEEAEEYEADAILIGWTDKDSVSSLVDKLLRKAGCDVIVFSADRDPIDTDSILVPVVVKPDANRLQMLAIMSQRTGASITFTYVTGDEGTDEEGRGLLDQSAERLAEYGVQAETELKSASSAVDALGQLSEDYDVMVIGTSRGWWLRKTLFGRKTDKIAQEAQCSLLMHKWQGEVPPES” here?
Its value is “not soluble”.

With “MGSDKIHHHHHHMSDEKKSTDIDLKNLKAGGFIKERGKDLFTVRLRVPGGRMPVARLKKIAEVAEKYGQGMVHLSVRQSVELININFRDFDAVVAELGEGTQKVASCGARVRVPTACGGCEYNPNGLVDTQKSALEVDEKLFGTSTGHHKFKVGFAGCPFDCPKSATNDVGFQGAIWPVLYADECIGCGLCDKSCTEDAIVMGDDGKPRFIPENCLYCGDCLKVCPSEAWRAEKKGYTVRIGGKWGRRPLVGTLFAEFLPEEQVFDFIAAVLDWYKEKAEGQGRIRLGDVIRAEGPDALLGYLRERFPAAVVDATIPPQRIATQIGKEKRVP” as the sequence, how does the “soluble on expression in E. coli” value read?
Its value is “not soluble”.

Which “soluble on expression in E. coli” value does the source give for “MGSDKIHHHHHHMSDIELLETLAGTDQPRVMATIIHVEGSSYRKEGAMMLFQEDGTQVGLLSGGCLETDLTIKAQKVWQEQLPRTVVYDLSSEDDLSWGQGSGCNGTISVLLEPVDLKLRQHLKRVYDYLCAGKSVFHVKKLSTSGAVLEYAFILDESVYFGEWHSGHPVEWIRKIDENEEPLMFTHIYSPKERLIIFGAGPDVPPLVTFASNVGFYTVVTDWRPNQCEKHFFPDADEIIVDFPADFLRKFLIRPDDFVLIMTHHFQKDQEILHFLLEKELRYIGILGSKERTRRLLQNRKPPDHLYSPVGLSIDAQGPEEIAISIVAQLIQLIRSRKQASSPFSYLFQPESCKH” here?
Its value is “not soluble”.

Which “soluble on expression in E. coli” value does the source give for “MGSDKIHHHHHHMSDITHTGEHQALVVGATGIIGSAILHRLGAAEGWTAIGLSRSRRVAEGRARMLEVDLLDPQDCARKLGALNRITHIFYAAYQARPSRAEEVAPNVQMLRNVVDAVSGRARGLKKIVLITGAKFYGIQWGRVKTPMKETDARQLPPNFYYDQEDFLRDAQRQADWHWCNLIPPFVSGYSVGNPMNLVMAIGVFASLSRELNLPLRFPGLPGAWSALQQIADAEQIAAAAHWAATSPAANNEAFNVTNGDPIRWENFWPAVAGHFGMRLEAPKTLPLGRLMADNEAAWARMVERYRLQAASIAKLVDWNWADYMFRMEYDVLMETGKIRRAGFQDCVDTTERFLARFRQLQQQQIIPR” here?
The value was “not soluble”.

For “MGSDKIHHHHHHMSDLPERLHDIIRRRNMVLGPGYQFSETIPVEFVSSFGAHLIDSDGNDYLDAFNNVQGVGHAHRHVADAVARQIAAINTDTRYPQEALVAYAERLLATFPAELSKLSLPCTGSEANDLAVRVARYHTGGEGIIVTRWAFHGRTREVASFSPMLGAGSPLGPNVRLIAAPDPRFCGPQQSLENYMRDQVRSAIVDLERHGYRLAALVADSAFTSDGIFTHPVGFLQAMVDEVHAAGGLHIADEVQSGFAQLGDSMWGFSRHGVVPDIVTMGKAIGNGFPISGVVFRPEVSDEFGQKVSYFNTLGGRSLSIAAASAVLDVFEQENVRERVAVNGAALQSGLETLARESPYVAEIRGSGLYLGVEIVKDRETLEPDPIRCESIIKDLRDRRVLISRTGSSGNVLKVRPPVAFTAADVSRFLETFAIVAKQRL”, which “soluble on expression in E. coli” value is on record?
The value was “not soluble”.

Which “soluble on expression in E. coli” value does the source give for “MGSDKIHHHHHHMSDRNTSNSLTLKERMLSAGAGSVLTSLILTPMDVVRIRLQQQQMIPDCSCDGAAEVPNAVSSGSKMKTFTNVGGQNLNNAKIFWESACFQELHCKNSSLKFNGTLEAFTKIASVEGITSLWRGISLTLLMAIPANMVYFSGYEYIRDVSPIASTYPTLNPLFCGAIARVFAATSIAPLELVKTKLQSIPRSSKSTKTWMMVKDLLNETRQEMKMVGPSRALFKGLEITLWRDVPFSAIYWSSYELCKERLWLDSTRFASKDANWVHFINSFASGCISGMIAAICTHPFDVGKTRWQISMMNNSDPKGGNRSRNMFKFLETIWRTEGLAALYTGLAARVIKIRPSCAIMISSYEISKKVFGNKLHQ” here?
The value was “not soluble”.

Which “soluble on expression in E. coli” value does the source give for “MGSDKIHHHHHHMSDSIYSIGTQGQPWTDEDKDLWLSKQVIKRSYQDEVLSKFESVTSSFDMIQYGSLSIDESRYPLYAMRSKNWQSKNKTVLVTGGVHGYETSGVQGAIRFLETSAKDFSQRFNIIVVPCVSPWGYETINRWNNEAIDPNRSFYLDSPAQESAALMSFINELDVNIAMHIDLHETTDTDNSEFRPALAARDAIEQKNWNIPDGFYLVGDSTKPAADFQGAINQAVAKVTHIAPEDSNGKLIGVDIEQFGVINYAGRELGLCMGLTDAPYVTTTEVYPDSPLVDDENCITAQVAAISAAITFI” here?
The value was “not soluble”.

For “MGSDKIHHHHHHMSEEKNTAIDLKNLKAGGFIKERGKDLFTVRLRVPGGRLPVGRLKKIAEVAEKYGQGMVHLSVRQSVELININFRDFDAVVAELGEGTQKVASCGARVRVPTACGGCEYNPNGLVDTQKSALEVDEKLFGIPTGHHKFKVGFAGCPFDCPKSATNDVGFQGAVWPVLSADHCIGCGLCAKSCTEDAIAMGDNGKPLFIPANCLYCGDCLKVCPTEAWRAGKKGYTVRIGGKWGRRPLVGTLFAEFLPEDQVVDFIAAVLGWYQEKAEGQGRIRLGDVIRAQGPEALLARLRERFPAFVVNATIAPQAIATQVGKEKQAHDNR”, which “soluble on expression in E. coli” value is on record?
Its value is “not soluble”.

For “MGSDKIHHHHHHMSEISAIWERIEAWHAANDQTENLNPGATAEALAQAEKDMGLTFPPEMRESLLRHDGSVDDSWPTGELLSLERMADERKVWMDLLQDGTFDGNASHNESSEALQPGWWNPAWIPLDADGGGNGAVIDLAPGPQGTVGQVIDMDHEVGPSGPKYVSLAAYLEAMLERLSEAEE”, which “soluble on expression in E. coli” value is on record?
Its value is “not soluble”.

For “MGSDKIHHHHHHMSEQNLIEVRDLAVEFVTGDQVNRVVDGVSFDIRKGETLALVGESGSGKSVTAHSILRLLPYPLARHPSGSIRYEGKDLLQQSEKTLQRIRGNRIAMIFQEPMTSLNPLHCIEKQINEILLLHKGLTGKEATARTLELLDMVGIPEPRKRLKALPHELSGGQRQRVMIAMALANEPELLIADEPTTALDVTVQLKILELLKELQARMGMALLLISHDLNLVRRIAHRVCVMQRGQIVEQAECATLFSSPQHHYTQMLINAEPSGLPAHNPVGAPLLEVDDLKVWFPIKKGFLQRTVDHVKAVDGVNFSLPQGQTLGIVGESGSGKSTLGLAILRLISSQGGIRFHGQNLEGLNQKAVRPLRREMQVVFQDPFGSLSPRMCVADIVGEGLRIHRIGTAQEQEAAIIAALEEVGLDPRTRHRYPHEFSGGQRQRIAIARALVLKPALILLDEPTSALDRTVQRQVVELLRNLQQKYNLTYLFISHDLAVVKALSHQLMVIKHGHVVEQGDAQAIFHAPQHPYTRQLLEAAFLEVGG”, which “soluble on expression in E. coli” value is on record?
Its value is “not soluble”.

For “MGSDKIHHHHHHMSETENNELTAGKQSKEPRSNQKLKLLYLAKILLNNTDANHDITLDEILNKLHAYDVTAARKSLYDDIAQLNDFGIKTQKTQYGRTVHYKVIGRAFELAELKLLVDSVAAAKFITEEKSNELIKKLESLTSRQEAATLQRQVYVAGRVKTMNSDIMKNVDAIHNAIANNSSLSFQYCRWNTKKELEVKHDGARYHVSPWGLLWNDGNYYLIGYDHDTQVKDIRHYRVDKMKNILIENKVREGREKLKKLDIASYGKSKFGMYNGEEIKAEILCKNSAIGVLIDRFGTDVTILKKDEAHSRVFVKVADNKLFIHWIMAMGDNFKIIGPENLVKEVHDELNRLAKQYELAD”, which “soluble on expression in E. coli” value is on record?
Its value is “not soluble”.

With “MGSDKIHHHHHHMSFEKTSELIEKSRELQEVYQQLVEDVGLDLWRFCRYLTGSPWDGEDLYQETLVKAFGSLYQRWQPTNPKAYLFRIATNTWIDQCRKAKRIVGTVDEMEGPVEEFSNDLELEHAFTRLFTLFPPRQVAVFLLKDVFAFTAEEVASMVRSTSNGVYATSSRVRKKLKETASLEEELSSNGRPSPEQSEVIQQYLEAFNAGDLGKLFDLMSDEVHIDASLGFQEYSKEEMKKGSMQYGLPGFRAEPFVLWGKTVLVVLVDRDAGPLIHDIQFQEIENGKIVYHKSYYFCKEFLMGAAKELQLQVQLDKAAVHWRHSLDEGEL” as the sequence, how does the “soluble on expression in E. coli” value read?
Its value is “not soluble”.

For “MGSDKIHHHHHHMSFEQDSTPRGNPVSCESARETNEFSPGKTCIKLMNYRRLTPSMSLLLVFEAAARHESYTRAADELSLSQSAISRQVQTLEDQLGVSLFRREGRSVKLTEVGRRYFVELSGALGRIRGATLQAMSHQAGAGTLRLATLPTFGSKWLLPHLHDFYAAHPGVTVHLHSRIGGIDFHTDDLDAAITVGSGDWPGLHAHRLYNEFLIAIASPDAAGRRKAGPRAPAWAVGQTLLGVTSNQHAWAEWFSHFGLDHREMRIGPSFELTSHLIQAVRAGMGIGLVPKVLVEDELSRNELVSIGDAITSQRSYYLVYPPENDTLPSLVAFREWLLKSC”, which “soluble on expression in E. coli” value is on record?
Its value is “not soluble”.

With “MGSDKIHHHHHHMSFGVNRDESSAFCQRAFEAENWRLAASAGLAPTLVAQSIDGRCYLSPLLEDGGWQQRYQEVPLSQITCDAAFFTSPGQTHAGSDREPDGLTHTTRLLLDLLLGLQALPVPANVKGFTTQWQDYETALDASQSHWARNPRWQEAYQALAAEFTEVEAAMARLDAMGLSCQYSHRDLTPHNLLCHQGKLFCIDFEYACASHPLWDLAAVLASHNLPGRERRDLMDAYLYAHPQLESSMSSRVVDAVALHWYFGAIWALLMAGQSGDDDYLCWFHRYLQLAKS” as the sequence, how does the “soluble on expression in E. coli” value read?
Its value is “not soluble”.
